Measured values as given in US20190382474A1 (SURFACE ONCOLOGY, published 2019).
Values joined by “and” are separate entries in the source; they are usually repeats but may differ in a detail not shown here. Equal entries are not always repeated.

T1: recombinant human IL-27 (human, UniProt Q14213 21-229; Q8NEV9 29-243)
T1 construct: Bought from R&D Systems (Cat. 2526-IL); also called hIL-27; rhIL-27
T1 sequence 1: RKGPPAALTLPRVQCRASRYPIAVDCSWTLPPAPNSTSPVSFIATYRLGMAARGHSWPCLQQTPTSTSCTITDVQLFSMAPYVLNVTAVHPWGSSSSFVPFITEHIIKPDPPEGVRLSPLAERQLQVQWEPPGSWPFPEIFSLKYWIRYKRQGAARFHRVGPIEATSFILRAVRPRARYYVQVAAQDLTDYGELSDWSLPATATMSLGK
T1 sequence 2: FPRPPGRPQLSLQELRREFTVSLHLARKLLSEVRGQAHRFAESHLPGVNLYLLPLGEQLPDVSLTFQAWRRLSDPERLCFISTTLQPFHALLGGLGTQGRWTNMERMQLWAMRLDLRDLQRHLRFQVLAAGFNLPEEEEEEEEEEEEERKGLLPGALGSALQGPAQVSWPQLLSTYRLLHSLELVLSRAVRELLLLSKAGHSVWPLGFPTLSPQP


Assays:
recombinant human IL-27 [1] = biological target: T1, recombinant human IL-27; test: column 'Affinity hIL-27 (M)', property (i); method not given, paragraph 885 names SPR (BIACORE 2000)
recombinant human IL-27 [2] = biological target: T1, recombinant human IL-27; test: SPR, hIL-27 on CM5 chip, bivalent analyte model
Protocol: (§1) The antibodies were further characterized by surface plasmon resonance (SPR). Kinetic experiments were performed on a Biacore T200 (GE Healthcare, Uppsala, Sweden). All experiments were run at 25° C. with HBS-P+ running buffer (pH 7.4) (GE Healthcare, Little Chalfont, UK) using hIL-27 (R&D Systems, Abingdon, UK). Human IL-27 (hIL-27) antigen was captured on a CM5 chip to ˜16 RU. Immobilization was carried out at a protein concentration of 1 μg/mL in 10 mM acetate buffer pH 5.0. A three point, three-fold dilution range from 3.3 nM to 30 nM of antibody diluted in HBS-P+ buffer without regeneration between each concentration was used. The association phase for the three injections of increasing concentrations of antibody was monitored for 75 seconds each time and a single dissociation phase was measured for 250 seconds following the last injection of antibody. Regeneration of the hIL-27 surface was conducted using a single injection of 2M MgCl₂ for 120 s. Multiple repeats (n=4) of the chimeric antibody were performed throughout the assay to check the stability of the surface and analyte over the kinetic cycles.
(§2) Both 1:1 binding and bivalent analyte models were used to analyze the data due to the bivalent nature of the antibody. The results from the 1:1 binding model analysis are summarized in Table 4 and results from the bivalent analyte model are summarized in Table 5.

recombinant human IL-27 [3] = biological target: T1, recombinant human IL-27; test: SPR, hIL-27 on CM5 chip, bivalent analyte model (ka1)
Protocol: as §1, §2

recombinant human IL-27 [4] = biological target: T1, recombinant human IL-27; test: SPR, hIL-27 on CM5 chip, bivalent analyte model (kd1)
Protocol: as §1, §2

recombinant human IL-27 [5] = biological target: T1, recombinant human IL-27; test: SPR (Biacore T200), hIL-27 on CM5 chip, single cycle, 1:1 model
Protocol: as §1, §2

Row | Kd (recombinant human IL-27 [1]) | ka2 (recombinant human IL-27 [2]) | kd2 (recombinant human IL-27 [2]) | kon (recombinant human IL-27 [3]) | koff (recombinant human IL-27 [4]) | Kd (recombinant human IL-27 [5]) | Relative KD to Ab7.1 (recombinant human IL-27 [5]) | koff (recombinant human IL-27 [5]) | kon (recombinant human IL-27 [5]) | Binder
1 | 0.74 nM | – | – | – | – | – | – | – | – | SRF573 (antibody, V domains shown) VH: QVQLVQSGAEVKKPGSSVKVSCKASGGTFSSYAISWVRQAPGQGLEWMGGIIPIFGTANYAQKFQGRVTITADESTSTAYMELSSLRSEDTAVYYCARSYYSSRWHYYYYMDVWGKGTTVTVSS VL: DIQMTQSPSSVSASVGDRVTITCRASQGISSWLAWYQQKPGKAPKLLIYAASNLQSGVPSRFSGSGSGTDFTLTISSLQPEDFATYYCQQADDLPLTFGGGTKVEIKR
2 | 1.98 nM | – | – | – | – | – | – | – | – | SRF583 (antibody, V domains shown) VH: QLQLQESGPGLVKPSETLSLTCTVSGGSISSSSYYWGWIRQPPGKGLEWIGSISYSGSTYYNPSLKSRVTISVDTSKNQFSLKLSSVTAADTAVYYCAREEYSFSYLDYWGQGTTVTVSS VL: DIQMTQSPSSVSASVGDRVTITCRASQGISSWLAWYQQKPGKAPKLLIYAASNLQSGVPSRFSGSGSGTDFTLTISSLQPEDFATYYCQQALLFPPTFGGGTKVEIKR
3 | – | 0.035 1/RUs | 0.087 s⁻¹ | 700000 M⁻¹ s⁻¹ | 0.0027 s⁻¹ | 1.2 nM | 1.2 | 0.0018 s⁻¹ | 1.5e+06 M⁻¹ s⁻¹ | Ab7.2 (antibody, human IgG1, kappa, V domains shown, human IgG1/kappa) VH: EVKLVESGGGLVQPGGSLKLFCAASGFTFTSYSMSWVRQTPEKRLEWVAYISYDGGSAYYPDTVKGRFSISRDNAKKTLYLQMSSLKSEDTAMYYCARHGDYDDDDAMDYWGQGTSVTVSS VL: DIQMTQSPSSLSASVGDRVTITCRASENIYSYLAWYQQKQGKAPKLLVYNAETLTEGVPSRFSGSGSGTDFTLTISSLQPEDFANYYCQHHYGTPLTFGQGTKLDIKR
4 | – | 0.029 1/RUs | 0.063 s⁻¹ | 750000 M⁻¹ s⁻¹ | 0.0022 s⁻¹ | 0.96 nM | 0.9 | 0.0015 s⁻¹ | 1.5e+06 M⁻¹ s⁻¹ | Ab7.3 (antibody, human IgG1, kappa, V domains shown, human IgG1/kappa) VH: EVKLVESGGGLVQPGGSLRLSCAASGFTFTSYSMSWVRQAPGKGLEWVAYISYDGGSAYYPDTVKGRFTISRDNSKKTLYLQMSSLKSEDTAMYYCARHGDYDDDDAMDYWGQGTSVTVSS VL: DIQMTQSPASLSASVGETVTITCRASENIYSYLAWYQQKQGKSPQLLVYNAETLTEGVPSRFSGSGSGTQFSLKINSLQPEDFGNYYCQHHYGTPLTFGAGTKLDLKR
5 | – | 0.039 1/RUs | 0.09 s⁻¹ | 580000 M⁻¹ s⁻¹ | 0.0029 s⁻¹ | 1.5 nM | 1.5 | 0.0019 s⁻¹ | 1.3e+06 M⁻¹ s⁻¹ | Ab7.17 (antibody, human IgG1, kappa, V domains shown, human IgG1/kappa) VH: EVQLVESGGGLVQPGGSLRLSCAASGFTFTSYSMSWVRQAPGKGLEWVAYISYDGGSAYYPDTVKGRFTISRDNSKNTLYLQMNSLRAEDTAVYYCARHGDYDDDDAMDYWGQGTLVTVSS VL: DIQMTQSPSSLSASVGDRVTITCRASENIYSYLAWYQQKPGKAPKLLVYNAETLTEGVPSRFSGSGSGTDFTLTISSLQPEDFANYYCQHHYGTPLTFGQGTKLEIKR
6 | – | 0.028 1/RUs | 0.068 s⁻¹ | 680000 M⁻¹ s⁻¹ | 0.0027 s⁻¹ | 1.2 nM | 1.2 | 0.0018 s⁻¹ | 1.5e+06 M⁻¹ s⁻¹ | Ab7.5 (antibody, human IgG1, kappa, V domains shown, human IgG1/kappa) VH: EVKLVESGGGLVQPGGSLRLSCAASGFTFTSYSMSWVRQAPGKGLEWVAYISYDGGSAYYPDTVKGRFTISRDNSKKTLYLQMSSLKSEDTAMYYCARHGDYDDDDAMDYWGQGTSVTVSS VL: DIQMTQSPSSLSASVGDRVTITCRASENIYSYLAWYQQKPGKAPKLLVYNAETLTEGVPSRFSGSGSGTDFTLTISSLQPEDFANYYCQHHYGTPLTFGQGTKLEIKR
7 | – | 0.043 1/RUs | 0.11 s⁻¹ | 590000 M⁻¹ s⁻¹ | 0.0028 s⁻¹ | 1.5 nM | 1.5 | 0.0019 s⁻¹ | 1.3e+06 M⁻¹ s⁻¹ | Ab7.9 (antibody, human IgG1, kappa, V domains shown, human IgG1/kappa) VH: EVQLVESGGGLVQPGGSLRLSCAASGFTFTSYSMSWVRQAPGKGLEWVAYISYDGGSAYYPDTVKGRFTISRDNSKNTLYLQMSSLKSEDTAMYYCARHGDYDDDDAMDYWGQGTLVTVSS VL: DIQMTQSPSSLSASVGDRVTITCRASENIYSYLAWYQQKPGKAPKLLVYNAETLTEGVPSRFSGSGSGTDFTLTISSLQPEDFANYYCQHHYGTPLTFGQGTKLEIKR
8 | – | 0.064 1/RUs | 0.15 s⁻¹ | 580000 M⁻¹ s⁻¹ | 0.0027 s⁻¹ | 1.5 nM | 1.4 | 0.0018 s⁻¹ | 1.3e+06 M⁻¹ s⁻¹ | Ab7.8 (antibody, human IgG1, kappa, V domains shown, human IgG1/kappa) VH: EVQLVESGGGLVQPGGSLRLSCAASGFTFTSYSMSWVRQAPGKGLEWVAYISYDGGSAYYPDTVKGRFTISRDNSKNTLYLQMSSLKSEDTAMYYCARHGDYDDDDAMDYWGQGTLVTVSS VL: DIQMTQSPSSLSASVGDRVTITCRASENIYSYLAWYQQKQGKAPKLLVYNAETLTEGVPSRFSGSGSGTDFTLTISSLQPEDFANYYCQHHYGTPLTFGQGTKLDIKR
9 | – | 0.084 1/RUs | 0.2 s⁻¹ | 600000 M⁻¹ s⁻¹ | 0.0025 s⁻¹ | 1.4 nM | 1.4 | 0.0018 s⁻¹ | 1.3e+06 M⁻¹ s⁻¹ | Ab7.10 (antibody, human IgG1, kappa, V domains shown, human IgG1/kappa) VH: EVQLVESGGGLVQPGGSLRLSCAASGFTFTSYSMSWVRQAPGKGLEWVAYISYDGGSAYYPDTVKGRFTISRDNSKNTLYLQMSSLKSEDTAMYYCARHGDYDDDDAMDYWGQGTLVTVSS VL: DIQMTQSPSSLSASVGDRVTITCRASENIYSYLAWYQQKPGKAPKLLVYNAETLTEGVPSRFSGSGSGTDFTLTISSLQPEDFATYYCQHHYGTPLTFGQGTKLEIKR
10 | – | 0.11 1/RUs | 0.29 s⁻¹ | 750000 M⁻¹ s⁻¹ | 0.0026 s⁻¹ | 1.2 nM | 1.2 | 0.0018 s⁻¹ | 1.5e+06 M⁻¹ s⁻¹ | Ab7.12 (antibody, human IgG1, kappa, V domains shown, human IgG1/kappa) VH: EVKLVESGGGLVQPGGSLRLSCAASGFTFTSYSMSWVRQAPGKGLEWVAYISYDGGSAYYPDTVKGRFTISRDNSKKTLYLQMNSLRAEDTAVYYCARHGDYDDDDAMDYWGQGTLVTVSS VL: DIQMTQSPSSLSASVGDRVTITCRASENIYSYLAWYQQKQGKAPKLLVYNAETLTEGVPSRFSGSGSGTDFTLTISSLQPEDFANYYCQHHYGTPLTFGQGTKLDIKR
11 | – | – | – | 720000 M⁻¹ s⁻¹ and 710000 M⁻¹ s⁻¹ | 0.0026 s⁻¹ and 0.0025 s⁻¹ | 1.2 nM and 1.3 nM | 1.2 | 0.0018 s⁻¹ | 1.5e+06 M⁻¹ s⁻¹ | Ab7.4 (antibody, human IgG1, kappa, V domains shown, human IgG1/kappa) VH: EVKLVESGGGLVQPGGSLRLSCAASGFTFTSYSMSWVRQAPGKGLEWVAYISYDGGSAYYPDTVKGRFTISRDNSKKTLYLQMSSLKSEDTAMYYCARHGDYDDDDAMDYWGQGTSVTVSS VL: DIQMTQSPSSLSASVGDRVTITCRASENIYSYLAWYQQKQGKAPKLLVYNAETLTEGVPSRFSGSGSGTDFTLTISSLQPEDFANYYCQHHYGTPLTFGQGTKLDIKR
12 | 0.52 nM | – | – | – | – | – | – | – | – | SRF414 (antibody, V domains shown, also called SRF414-A; SRF414-B) VH: QVQLQQWGAGLLKPSETLSLTCAVYGGSFSRYYWSWIRQPPGKGLEWIGSIDYSGSTEYNPSLKSRVTISVDTSKNQFSLKLSSVTAADTAVYYCARDGVYYDSSDLGFDIWGQGTMVTVSS VL: not shown
13 | 94.4 nM | – | – | – | – | – | – | – | – | SRF541 (antibody, V domains shown) VH: QVQLQESGPGLVKPSETLSLTCTVSGGSISSYYWSWIRQPPGKGLEWIGSIYYSGSTNYNPSLKSRVTISVDTSKNQFSLKLSSVTAADTAVYYCAREVDRDDVAFDIWGQGTMVTVSS VL: not shown
14 | – | 0.021 1/RUs | 0.046 s⁻¹ | 670000 M⁻¹ s⁻¹ | 0.0022 s⁻¹ | 1 nM | 1 | 0.0015 s⁻¹ | 1.4e+06 M⁻¹ s⁻¹ | Ab7.1 (antibody, human IgG1, kappa, human IgG1/kappa chimera from HEK293 EBNA cells; also called chimeric Ab7.1 antibody; chimeric antibody) heavy: not shown light: DIQMTQSPASLSASVGETVTITCRASENIYSYLAWYQQKQGKSPQLLVYNAETLTEGVPSRFSGSGSGTQFSLKINSLQPEDFGNYYCQHHYGTPLTFGAGTKLDLKRTVAAPSVFIFPPSDEQLKSGTASVVCLLNNFYPREAKVQWKVDNALQSGNSQESVTEQDSKDSTYSLSSTLTLSKADYEKHKVYACEVTHQGLSSPVTKSFNRGEC
